The results in this text go back to patent US5646120, “Peptide-based inhibitors of HIV replication” (Allelix Biopharmaceuticals, Inc.).

Data set [1] deals with T1, Tat basic domain wild-type oligopeptide ([…]) (HIV-1, UniProt P04608 P04608:49-57).
T1 chain: RKKRRQRRR
Kind of data set: EMSA; affinity similar to tat(1-86). The following applies: protein: synthetic; tags: synthetic L-peptide, American Peptide Company; hairpin.

A further data set deals with HIV-1 Tat(1-86) (HIV-1, UniProt P04608 P04608:1-86). The data set can be described thus: EMSA; TAR variant stated not to bind tat. The following applies: hairpin. (In general: In EMSA bound probe runs differently from free probe, usually more slowly.)

B1: truncated functional TAR RNA (ssRNA)
RNA: GGAGAUCUGAGCCUGGGAGCUCUCUCC
Regarding B1, in data set [1], the binding result is listed as “binds”.

B2: TAR variant not binding tat (ssRNA)
RNA: GGAGAACUGAGCCUGGGAGCUCUCUCC
B2: the binding result in the data set with HIV-1 Tat(1-86) is given as “no binding”.
